Source: US20260242735A1 (UNIVERSIT T BASEL, published 2026)
Values belong to the binder of their own block, whether it stands above or below them.

Columns and labels:
[1] = biological target: human CD33 P201A (human, UniProt P20138 18-364); assay: alanine scan, flow cytometry;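 further: HEK293-T cells transiently expressing single-residue alanine mutants of CD33 (alanine swapped to serine), antibody binding read by fluorescence in duplicate, background-subtracted, expressed relative to wild-type CD33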
[2] = biological target: human CD33 R202A (human, UniProt P20138 18-364); assay: alanine scan, flow cytometry;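 further: HEK293-T cells transiently expressing single-residue alanine mutants of CD33 (alanine swapped to serine), antibody binding read by fluorescence in duplicate, background-subtracted, expressed relative to wild-type CD33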
[3] = biological target: human CD33 P203A (human, UniProt P20138 18-364); assay: alanine scan, flow cytometry;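 further: HEK293-T cells transiently expressing single-residue alanine mutants of CD33 (alanine swapped to serine), antibody binding read by fluorescence in duplicate, background-subtracted, expressed relative to wild-type CD33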
[4] = biological target: human CD33 L210A (human, UniProt P20138 18-364); assay: alanine scan, flow cytometry;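 further: HEK293-T cells transiently expressing single-residue alanine mutants of CD33 (alanine swapped to serine), antibody binding read by fluorescence in duplicate, background-subtracted, expressed relative to wild-type CD33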
[5] = biological target: human CD33 T211A (human, UniProt P20138 18-364); assay: alanine scan, flow cytometry
[6] = biological target: human CD33 Q213A (human, UniProt P20138 18-364); assay: alanine scan, flow cytometry
[7] = biological target: human CD33 A217S (human, UniProt P20138 18-364); assay: alanine scan, flow cytometry
[8] = biological target: human CD33 G218A (human, UniProt P20138 18-364); assay: alanine scan, flow cytometry
[9] = biological target: human CD33 G220A (human, UniProt P20138 18-364); assay: alanine scan, flow cytometry
[10] = biological target: human CD33 V221A (human, UniProt P20138 18-364); assay: alanine scan, flow cytometry
[11] = biological target: human CD33 T222A (human, UniProt P20138 18-364); assay: alanine scan, flow cytometry
[12] = biological target: human CD33 T223A (human, UniProt P20138 18-364); assay: alanine scan, flow cytometry
[13] = biological target: human CD33 E224A (human, UniProt P20138 18-364); assay: alanine scan, flow cytometry
[14] = biological target: human CD33 T226A (human, UniProt P20138 18-364); assay: alanine scan, flow cytometry
[15] = biological target: human CD33 I227A (human, UniProt P20138 18-364); assay: alanine scan, flow cytometry
[16] = biological target: human CD33 Q228A (human, UniProt P20138 18-364); assay: alanine scan, flow cytometry
[17] = biological target: human CD33 N230A (human, UniProt P20138 18-364); assay: alanine scan, flow cytometry
[18] = biological target: human CD33 V231A (human, UniProt P20138 18-364); assay: alanine scan, flow cytometry
[19] = biological target: human CD33 P235A (human, UniProt P20138 18-364); assay: alanine scan, flow cytometry
[20] = biological target: human CD33 N237A (human, UniProt P20138 18-364); assay: alanine scan, flow cytometry
[21] = biological target: human CD33 P238A (human, UniProt P20138 18-364); assay: alanine scan, flow cytometry
[22] = biological target: human CD33 G241A (human, UniProt P20138 18-364); assay: alanine scan, flow cytometry
[23] = biological target: human CD33 F243A (human, UniProt P20138 18-364); assay: alanine scan, flow cytometry
[24] = biological target: human CD33 P244A (human, UniProt P20138 18-364); assay: alanine scan, flow cytometry
[25] = biological target: human CD33 G247A (human, UniProt P20138 18-364); assay: alanine scan, flow cytometry
[26] = biological target: human CD33 S248A (human, UniProt P20138 18-364); assay: alanine scan, flow cytometry
[27] = biological target: human CD33 K250A (human, UniProt P20138 18-364); assay: alanine scan, flow cytometry
[28] = biological target: human CD33 L197A (human, UniProt P20138 18-364); assay: alanine scan, flow cytometry
[29] = biological target: human CD33 E252A (human, UniProt P20138 18-364); assay: alanine scan, flow cytometry
[30] = biological target: human CD33 A255S (human, UniProt P20138 18-364); assay: alanine scan, flow cytometry
[31] = biological target: human CD33 V257A (human, UniProt P20138 18-364); assay: alanine scan, flow cytometry
[32] = biological target: human CD33 G260A (human, UniProt P20138 18-364); assay: alanine scan, flow cytometry
[33] = biological target: human CD33 I262A (human, UniProt P20138 18-364); assay: alanine scan, flow cytometry
[34] = biological target: human CD33 G263A (human, UniProt P20138 18-364); assay: alanine scan, flow cytometry
[35] = biological target: human CD33 A265S (human, UniProt P20138 18-364); assay: alanine scan, flow cytometry
[36] = biological target: human CD33 G266A (human, UniProt P20138 18-364); assay: alanine scan, flow cytometry
[37] = biological target: human CD33 L270A (human, UniProt P20138 18-364); assay: alanine scan, flow cytometry
[38] = biological target: human CD33 T200A (human, UniProt P20138 18-364); assay: alanine scan, flow cytometry
[39] = biological target: human CD33 G94A (human, UniProt P20138 18-364); assay: alanine scan, flow cytometry, HEK293-T;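 further: antibody binding to each alanine-substituted CD33 mutant expressed transiently in HEK293-T, read as fluorescence minus background, mean of duplicates, relative to wild-type CD33 set as 100%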
Experimental: An alanine scan on human CD33 was performed to the determine the residues on CD33 that are involved in binding to the antibodies investigated. […] Briefly, a mutation library of CD33 was created by high-throughput, site-directed mutagenesis. Each residue was individually mutated to alanine, with alanine codons mutated to serine. The mutant library was arrayed in 384-well microplates and transiently transfected into HEK293-T. Following transfection, cells were incubated with the indicated antibodies (IgG or Fab) at concentrations pre-determined using an independent immunofluorescence titration curve on wild type CD33. […] Binding of each antibody to each mutant clone was determined in duplicates. For each point, background fluorescence was subtracted from the raw data, which were then normalized to antibody reactivity with wild type CD33.
Critical residues for antibody binding (outlined in dark grey) were residues whose mutations led to a binding of the test Abs of less than 20%. Additional secondary residues (outlined in light grey) were identified that led to a binding of the test Abs of between 20 and 40% as compared to the wild type CD33.

Sequence of human CD33 P235A (P20138 18-364 P235A limits assumed): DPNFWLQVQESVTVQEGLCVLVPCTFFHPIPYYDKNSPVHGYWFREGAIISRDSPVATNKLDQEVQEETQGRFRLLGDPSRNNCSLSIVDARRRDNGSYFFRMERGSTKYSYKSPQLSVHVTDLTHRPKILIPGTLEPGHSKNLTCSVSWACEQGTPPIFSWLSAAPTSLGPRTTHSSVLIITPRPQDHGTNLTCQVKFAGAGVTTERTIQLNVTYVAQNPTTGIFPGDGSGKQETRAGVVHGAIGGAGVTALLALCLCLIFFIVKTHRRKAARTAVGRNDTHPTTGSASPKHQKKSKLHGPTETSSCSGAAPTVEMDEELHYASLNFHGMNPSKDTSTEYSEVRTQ
Sequence of human CD33 N237A (P20138 18-364 N237A limits assumed): as the sequence (P20138 18-364 P235A limits assumed) above, with A218P, N220A counted along it
Sequence of human CD33 L197A (P20138 18-364 L197A limits assumed): as the sequence (P20138 18-364 P235A limits assumed) above, with L180A, A218P counted along it
Sequence of human CD33 R202A (P20138 18-364 R202A limits assumed): as the sequence (P20138 18-364 P235A limits assumed) above, with R185A, A218P counted along it
Sequence of human CD33 Q213A (P20138 18-364 Q213A limits assumed): as the sequence (P20138 18-364 P235A limits assumed) above, with Q196A, A218P counted along it
Sequence of human CD33 P244A (P20138 18-364 P244A limits assumed): as the sequence (P20138 18-364 P235A limits assumed) above, with A218P, P227A counted along it
Sequence of human CD33 G266A (P20138 18-364 G266A limits assumed): as the sequence (P20138 18-364 P235A limits assumed) above, with A218P, G249A counted along it
Sequence of human CD33 V221A (P20138 18-364 V221A limits assumed): as the sequence (P20138 18-364 P235A limits assumed) above, with V204A, A218P counted along it
Sequence of human CD33 N230A (P20138 18-364 N230A limits assumed): as the sequence (P20138 18-364 P235A limits assumed) above, with N213A, A218P counted along it
Sequence of human CD33 T223A (P20138 18-364 T223A limits assumed): as the sequence (P20138 18-364 P235A limits assumed) above, with T206A, A218P counted along it
Sequence of human CD33 T211A (P20138 18-364 T211A limits assumed): as the sequence (P20138 18-364 P235A limits assumed) above, with T194A, A218P counted along it
Sequence of human CD33 T226A (P20138 18-364 T226A limits assumed): as the sequence (P20138 18-364 P235A limits assumed) above, with T209A, A218P counted along it
Sequence of human CD33 G218A (P20138 18-364 G218A limits assumed): as the sequence (P20138 18-364 P235A limits assumed) above, with G201A, A218P counted along it
Sequence of human CD33 E252A (P20138 18-364 E252A limits assumed): as the sequence (P20138 18-364 P235A limits assumed) above, with A218P, E235A counted along it

Mean % WT Binding [1]: 111 % WT binding
Mean % WT Binding [2]: 123 % WT binding
Mean % WT Binding [3]: 105 % WT binding
Mean % WT Binding [4]: 78.2 % WT binding
Mean % WT Binding [5]: 80.4 % WT binding
Mean % WT Binding [6]: 128 % WT binding
Mean % WT Binding [7]: 121 % WT binding
Mean % WT Binding [8]: 102 % WT binding
Mean % WT Binding [9]: 93.5 % WT binding
Mean % WT Binding [10]: 116 % WT binding
Mean % WT Binding [11]: 111 % WT binding
Mean % WT Binding [12]: 115 % WT binding
Mean % WT Binding [13]: 97.1 % WT binding
Mean % WT Binding [14]: 97.9 % WT binding
Mean % WT Binding [15]: 105 % WT binding
Mean % WT Binding [16]: 129 % WT binding
Mean % WT Binding [17]: 105 % WT binding
Mean % WT Binding [18]: 88.2 % WT binding
Mean % WT Binding [19]: 102 % WT binding
Mean % WT Binding [20]: 91.8 % WT binding
Mean % WT Binding [21]: 157 % WT binding
Mean % WT Binding [22]: 109 % WT binding
Mean % WT Binding [23]: 103 % WT binding
Mean % WT Binding [24]: 107 % WT binding
Mean % WT Binding [25]: 85.6 % WT binding
Mean % WT Binding [26]: 105 % WT binding
Mean % WT Binding [27]: 85.7 % WT binding
Mean % WT Binding [28]: 102 % WT binding
Mean % WT Binding [29]: 114 % WT binding
Mean % WT Binding [30]: 88.3 % WT binding
Mean % WT Binding [31]: 134 % WT binding
Mean % WT Binding [32]: 102 % WT binding
Mean % WT Binding [33]: 97.5 % WT binding
Mean % WT Binding [34]: 104 % WT binding
Mean % WT Binding [35]: 99.7 % WT binding
Mean % WT Binding [36]: 111 % WT binding
Mean % WT Binding [37]: 91 % WT binding
Mean % WT Binding [38]: 98.3 % WT binding
B1: Refmab #5 (antibody, V domains shown)
VH: QVQLVQSGAEVKKPGASVKVSCKASGYTFTNYDINWVRQAPGQGLEWIGWIYPGDGSTKYNEKFKAKATLTADTSTSTAYMELRSLRSDDTAVYYCASGYEDAMDYWGQGTTVTVSS
VL: DIQMTQSPSSLSASVGDRVTINCKASQDINSYLSWFQQKPGKAPKTLIYRANRLVDGVPSRFSGSGSGQDYTLTISSLQPEDFATYYCLQYDEFPLTFGGGTKVEIK
notes: Full-length format is human IgG1 Fc silent (PG-LALA); also made as Fab; The alanine scan used IgG or Fab

Mean % WT Binding [39]: 93.1 % WT binding
B2: Refmab #6 (antibody, V domains shown)
VH: QVQLQQPGAEVVKPGASVKMSCKASGYTFTSYYIHWIKQTPGQGLEWVGVIYPGNDDISYNQKFQGKATLTADKSSTTAYMQLSSLTSEDSAVYYCAREVRLRYFDVWGQGTTVTVSS
VL: EIVLTQSPGSLAVSPGERVTMSCKSSQSVFFSSSQKNYLAWYQQIPGQSPRLLIYWASTRESGVPDRFTGSGSGTDFTLTISSVQPEDLAIYYCHQYLSSRTFGQGTKLEIK
notes: as for B1
